Test results: patent US20250136677A1 (ZOETIS SERVICES, published 2025)
Read-outs that look alike come from different tables or passages of the source.

T1: wildtype feline IL-31 protein (Feline_IL31_wildtype) (feline)
T1 chain: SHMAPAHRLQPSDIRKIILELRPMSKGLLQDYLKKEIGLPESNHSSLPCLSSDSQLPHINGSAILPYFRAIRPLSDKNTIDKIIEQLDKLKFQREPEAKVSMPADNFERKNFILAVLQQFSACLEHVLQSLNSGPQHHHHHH

T2: equine IL-31 protein (Equine_IL31) (equine)
T2 construct: Recombinant equine IL-31
T2 chain: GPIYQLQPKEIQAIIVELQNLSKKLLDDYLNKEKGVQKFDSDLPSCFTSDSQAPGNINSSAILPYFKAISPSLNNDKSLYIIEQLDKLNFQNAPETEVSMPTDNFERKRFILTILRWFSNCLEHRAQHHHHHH

T3: mutant feline IL-31 15H05 protein (Feline_IL31_15H05_mutant) (feline)
T3 construct: also called feline 15H05 mutant; 15H05 IL-31 mutant
T3 chain: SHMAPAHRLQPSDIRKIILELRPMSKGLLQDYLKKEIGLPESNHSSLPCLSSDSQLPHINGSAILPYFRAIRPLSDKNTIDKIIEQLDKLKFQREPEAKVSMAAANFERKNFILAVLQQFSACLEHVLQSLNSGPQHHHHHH

T4: human IL-31 (human, UniProt Q6EBC2 24-164)
T4 sequence: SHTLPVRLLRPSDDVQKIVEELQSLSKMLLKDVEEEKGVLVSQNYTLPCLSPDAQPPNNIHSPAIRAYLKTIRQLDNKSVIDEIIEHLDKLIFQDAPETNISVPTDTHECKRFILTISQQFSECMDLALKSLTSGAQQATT

T5: mutant feline IL-31 11E12 protein (Feline_IL31_11E12_mutant) (feline)
T5 construct: also called feline 11E12 mutant; 11E12 IL-31 mutant
T5 chain: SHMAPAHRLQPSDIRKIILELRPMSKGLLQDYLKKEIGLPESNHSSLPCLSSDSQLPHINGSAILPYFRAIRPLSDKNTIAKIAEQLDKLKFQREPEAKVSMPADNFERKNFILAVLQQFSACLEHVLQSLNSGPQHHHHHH

T6: mutant feline IL-31 15H05 protein (Feline_IL31_15H05_mutant) (feline)
T6 sequence: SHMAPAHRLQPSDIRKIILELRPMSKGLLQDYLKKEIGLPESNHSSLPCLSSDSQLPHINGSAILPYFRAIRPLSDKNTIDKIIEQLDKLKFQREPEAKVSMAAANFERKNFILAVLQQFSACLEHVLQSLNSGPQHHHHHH


Columns and labels:
[1] = biological target: T1, wildtype feline IL-31 protein …; test: cell-based or functional assay
[2] = biological target: T1, wildtype feline IL-31 protein …; test: SPR (Biacore), feline IL-31 (SEQ ID NO 157)
Method: The affinity with which candidate mAbs bind canine and feline IL-31 was determined using surface plasmon resonance (SPR) on a Biacore system (Biocore Life Sciences (GE Healthcare), Uppsala, Sweden). To avoid affinity differences associated with differential surface preparation that can occur when immobilizing antibodies to surfaces; a strategy was employed where IL-31 was directly conjugated to the surface. Immobilization was obtained by amine coupling 5 μg/mL IL-31 using N-hydroxysuccinimide (NHS)/1-Ethyl-3-(3-dimethylaminopropyl) carbodiimide (EDC) chemistry. Chips were quenched with ethanolamine and the affinity with which all candidate mAbs bound to the immobilized IL-31 was evaluated. All curves were fit to a 1:1 model. […] Results for affinity measurements are described herein.
Cellular potency was assessed using feline IL-31 to stimulate pSTAT3 signalling in FCFW4 cells. IC₅₀ vlaues were calculated for each antibody as described previously in this application. […] It is worth noting that both antibodies are considered potent with IC₅₀s in the range of those antibodies previously described herein from the 15H05 lineage (FIG. 3).

[3] = biological target: T1, wildtype feline IL-31 protein …; test: cell-based or functional assay
[4] = biological target: T2, equine IL-31 protein (Equine_IL31); test: ELISA screening of hybridoma supernatants on equine IL-31
[5] = biological target: T1, wildtype feline IL-31 protein …; test: indirect ELISA, IL-31 protein coated
Method: (§1) For the indirect ELISA method, antibody binding to wildtype and feline IL-31 15H05 mutant proteins was assessed. All nine canine monoclonal antibodies (ZIL1, ZIL8, ZIL8, ZIL11, ZIL69, ZIL94, ZIL154, ZIL159, and ZIL171) were capable of binding to wildtype feline IL-31 and binding was impacted by mutations in the mAb 15H05 epitope region confirming the correct binding phenotype determined during the initial screening used to identify them. In comparison, the 11E12 antibody bound to the wild-type feline IL-31 and its binding was not impacted by the mutations in the 15H05 epitope region as evidenced by the data in FIG. 4. To confirm binding, biacore analysis was performed using canine, feline, equine, human, feline 15H05 mutant, and feline 11E12 mutant IL-31 proteins as surfaces and a single test concentration of antibody. Similar to ELISA observations, all antibodies tested bound to wildtype feline IL-31. In agreement with the data described above in this section, mouse antibodies 11E12 and 15H05 both bound to canine and feline IL-31 surfaces. Three additional antibodies where shown to have this dual binding property, ZIL69 (partial canine binding), ZIL94, and ZIL159. From this group of nine fully canine antibodies, only ZIL1 and ZIL9 cross-reacted with equine IL-31. Of note, antibody 15H05 was the only one of all assayed herein that bound to canine, feline, and equine IL-31 indicating some level of epitope conservation across the three species. In contrast, none of the antibodies described herein bound to human IL-31. Additional biacore surfaces were used to verify ELISA observations showing differential binding of antibodies to wildtype feline IL-31 and two proteins with mutations in the 15H05 (15H05 mutant) or 11E12 (11E12 mutant) epitopes. […] In agreement with the ELISA results, all fully canine antibodies were impacted by the 15H05 mutation with the exception of ZIL94, ZIL154, and ZIL171 (partially affected). Differing results can be attributed to differences in the two assay methodologies.

[6] = biological target: T3, mutant feline IL-31 15H05 protein …; test: indirect ELISA, IL-31 protein coated
Method: as §1

human IL-31 = biological target: T4, human IL-31; test: SPR (Biacore), IL-31 surface, single antibody concentration
[7] = biological target: T2, equine IL-31 protein (Equine_IL31); test: as above
[8] = biological target: T5, mutant feline IL-31 11E12 protein …; test: as above
[9] = biological target: T6, mutant feline IL-31 15H05 protein (Feline_IL31_15H05_mutant) (feline); test: indirect ELISA, IL-31 protein coated

Row | Binder | binding result [4] | ELISA OD [5] | binding result [7] | binding result [8] | also measured
1 | ZTS-5864 (antibody, V domains shown, see recheck) VH: DVQLVESGGDLVKPGGSLRLTCVASGFTFSDYAMSWVRQAPGKGLQWVAGIDSVGSGTSYADSVKGRFTISRDNAKNTLYLQMNSLKTEDTATYYCASGFPGSFEHWGQGALVTVSS VL: QSVLTQPSSVSGTLGQRITISCTGSSSNIGSGYVGWYQQVPGMGPKTVIYYNSDRPSGVPDRFSGSKSGSSGTLTITGLQAEDEADYYCSVYDRTFNAVFGGGTHLTVLG | – | – | – | – | IC50, inhibition of feline IL-31 induced pSTAT3 in feline FCWF4 cells [1]: 3.73 µg/ml; Kd [2]: 0.571 nM; kon [2]: 108000 M⁻¹ s⁻¹; IC50, feline IL-31 stimulated pSTAT3 signalling in FCFW4 cells, relative to ZTS-5865 [3]: ~3 fold
2 | mouse anti equine IL-31 antibody 04H07 (antibody, V domains shown, Mouse hybridoma antibody; also called Mu_04H07) VH: QVQLQQPGAELVRPGASVKLSCKASGYTFTSYWMNWAKQRPGQGLEWIGMIDPSDSEIHYNQVFKDKATLTVDKSSSTAYMQLSSLTSEDSAVYYCARQDIVTTVDYWGQGTTLTVSS VL: DIVMSQSPSSLAVSVGEKVTMSCKSSQSLLYSINQKNHLAWFQQKPGQSPKLLIYWASTRESGVPARFTGSGSGTDFTLTISSVKTEDLAVYYCQQGYTYPFTFGSGTKLEIK | binds | – | – | – | –
3 | mouse anti equine IL-31 antibody 06A09 (antibody, V domains shown, Mouse hybridoma antibody; also called Mu_06A09) VH: QVQLQQPGAELVRPGASVKLSCKAYGYTFTSYWMNWVKQRPGQGLEWIGMIDPSDSETHYNQIFRDKATLTIDKSSSTAYMQLSSLTSEDSAVYFCARQDIVTTVDYWGQGTTLTVSS VL: DIVMSQSPSSLAVSVGEKVTMSCKSSQSLLYSINQKNFLAWYQQKPGQSPKLLIYWASTRESGVPDRFTGSGSGTDFTLTISSVKSEDLAVYYCQQHYGYPFTFGSGTKLEIK | binds | – | – | – | –
4 | ZIL154 (recombinant fully canine antibody) (antibody, V domains shown, Fully canine IgG; also called CAN-ZIL154) VH: EVHLVESGGDLVKPWGSLRLSCVASGFTFSDRGMSWVRQSPGKGLQWVAYIRYDGSRTDYADAVEGRFTISRDNAKNTLYLQMNSLRAEDTAVYYCARWDGSSFDYWGQGTLVTVSS VL: DIVVTQTPLSLSVSPGETASFSCKASQSLLHSDGNTYLDWFRQKPGQSPQRLIYKVSNRDPGVPDRFSGSGSGTDFTLRISGVEADDAGLYYCMQAIHFPLTFGAGTKVELKR | – | 1.62 OD | no binding | binds | ELISA OD [6]: 1.38 OD; binding result (human IL-31): no binding
5 | ZIL159 (recombinant fully canine antibody) (antibody, V domains shown, also called CAN-ZIL159) VH: EVQLVESGGDLVKPAGSLRLSCVASGFTFSSYVMTWVRQAPGKGLQWVAGINSEGSRTAYADAVKGRFTISRDNAKNTLYLQIDSLRAEDTAIYYCATGDIVATGTSYWGQGTLVTVSS VL: SNVLTQPPSVSVSLGQTATISCSGETLNRFYTQWFQQKAGQAPVLVIYKDTERPSGIPDRFSGSSSGNIHTLTISGARAEDEAAYYCKSAVSIDVGVFGGGTHLTVFR | – | 1.6 OD | no binding | no binding | ELISA OD [9]: 1.31 OD
